# Positions of bridges follow the written chain, without caps; N, C: chain ends. Non-standard residues stand in square brackets, D forms with d. Primed or numbered codes have the meaning given here. No end group written: not given here. FAM″ = 5(6)-carboxyfluorescein label; pS = N[C@@H](COP(=O)(O)O)C(=O)O; FAM = 5(6)-carboxyfluorescein; S5 = C=CCCC[C@](C)(N)C(=O)O
# T1: clathrin heavy chain minimal ankle region (CHC^ankle, aa 358–574) (human, UniProt Q00610 358-574)
# T1 construct: modified pGEX vector with a TEV-cleavable GST tag; also called CHC ankle region protein; WT CHC
# T1 sequence (looked up): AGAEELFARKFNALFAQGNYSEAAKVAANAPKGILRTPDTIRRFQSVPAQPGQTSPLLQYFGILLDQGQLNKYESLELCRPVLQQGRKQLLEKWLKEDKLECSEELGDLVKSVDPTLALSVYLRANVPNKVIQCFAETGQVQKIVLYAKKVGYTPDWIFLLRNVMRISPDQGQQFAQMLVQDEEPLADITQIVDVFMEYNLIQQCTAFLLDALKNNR
# T2: biotinylated Avi-tagged ankle region of clathrin (aa 358–574) (human, UniProt Q00610 358-574, biotin)
# T2 construct: held on a streptavidin chip (SPR) or detected with an anti-biotin antibody (peptide arrays)
# T2 sequence (looked up): T1 sequence (looked up)
# B1: GB1-pTACC3 (domain or fragment, human, UniProt Q9Y6A5 545-573, looked up)
# chain: GTSSFKESALRKQ[pS]LYLKFDPLLRDSPGR
# modifications: also: 15N/13C labelled
# notes: human TACC3 aa 545-573 (the results say aa 546-573), pS558, fused to the small protein GB1; also called phosphorylated GB1-TACC3 CID; source: E. coli BL21 (DE3) RIL, purified; phosphorylated in situ with Aurora-A (122–403) and TPX2 (1–43); not shown: His-NusA, N-terminal, cleaved
# B2: FAM-TACC3 CID K562A peptide, unphosphorylated (peptide, UniProt Q9Y6A5 549-570, looked up)
# peptide: {FAM}-FKESALRKQSLYLAFDPLLRDS
# notes: human TACC3 CID, aa 549-570, K562A, no phosphate; also called K562A^TACC3; source: synthetic peptide, bought: PPR, Alta Bioscience or Biomatik Corporation
# B3: FAM-TACC3 CID S558E peptide (peptide, UniProt Q9Y6A5 549-570, looked up)
# peptide: {FAM}-FKESALRKQELYLKFDPLLRDS
# notes: human TACC3 CID, aa 549-570, S558E; also called phosphomimetic glutamic acid variant; S558E TACC3^CID; source: synthetic peptide, bought: PPR, Alta Bioscience or Biomatik Corporation
# B4: FAM-pTACC3 CID R555A peptide (peptide, UniProt Q9Y6A5 549-570, looked up)
# peptide: {FAM}-FKESALAKQ[pS]LYLKFDPLLRDS
# notes: human TACC3 CID, aa 549-570, pS558, R555A; also called R555A^pTACC3; source: synthetic peptide, bought: PPR, Alta Bioscience or Biomatik Corporation
# B5: FAM-pTACC3 CID R555A K562A peptide (peptide, UniProt Q9Y6A5 549-570, looked up)
# peptide: {FAM}-FKESALAKQ[pS]LYLAFDPLLRDS
# notes: human TACC3 CID, aa 549-570, pS558, R555A and K562A; also called R555A K562A^pTACC3; source: synthetic peptide, bought: PPR, Alta Bioscience or Biomatik Corporation
# B6: FAM-pTACC3 CID K562A peptide (peptide, UniProt Q9Y6A5 549-570, looked up)
# peptide: {FAM}-FKESALRKQ[pS]LYLAFDPLLRDS
# notes: human TACC3 CID, aa 549-570, pS558, K562A; also called K562A^pTACC3; source: synthetic peptide, bought: PPR, Alta Bioscience or Biomatik Corporation
# B7: array peptide TACC3 550–568 S558D Y560L K562Q (peptide, UniProt Q9Y6A5 550-568, looked up)
# peptide: KESALRKQDLLLQFDPLLR
# modifications: also: 8-amino-3,6-dioxaoctanoic acid spacer to cellulose membrane, end not given here
# notes: human TACC3 aa 550-568 with S558D, Y560L, K562Q; source: synthesised on cellulose membrane (MultiPep 2)
# B8: array peptide TACC3 550–568 S558D Y560L K562I L567F (peptide, UniProt Q9Y6A5 550-568, looked up)
# peptide: KESALRKQDLLLIFDPLFR
# modifications: also: 8-amino-3,6-dioxaoctanoic acid spacer to cellulose membrane, end not given here
# notes: human TACC3 aa 550-568 with S558D, Y560L, K562I, L567F; source: synthesised on cellulose membrane (MultiPep 2)
# B9: array peptide TACC3 550–568 S558D Y560L K562I (peptide, UniProt Q9Y6A5 550-568, looked up)
# peptide: KESALRKQDLLLIFDPLLR
# modifications: also: 8-amino-3,6-dioxaoctanoic acid spacer to cellulose membrane, end not given here
# notes: human TACC3 aa 550-568 with S558D, Y560L, K562I; source: synthesised on cellulose membrane (MultiPep 2)
# B10: array peptide TACC3 550–568 S558D Y560L K562Q L567F (peptide, UniProt Q9Y6A5 550-568, looked up)
# peptide: KESALRKQDLLLQFDPLFR
# modifications: also: 8-amino-3,6-dioxaoctanoic acid spacer to cellulose membrane, end not given here
# notes: human TACC3 aa 550-568 with S558D, Y560L, K562Q, L567F; source: synthesised on cellulose membrane (MultiPep 2)
# B11: array peptide TACC3 550–568 S558D Y560I K562L (peptide, UniProt Q9Y6A5 550-568, looked up)
# peptide: KESALRKQDLILLFDPLLR
# modifications: also: 8-amino-3,6-dioxaoctanoic acid spacer to cellulose membrane, end not given here
# notes: human TACC3 aa 550-568 with S558D, Y560I, K562L; source: synthesised on cellulose membrane (MultiPep 2)
# B12: array peptide TACC3 550–568 S558D Y560W K562L L567F (peptide, UniProt Q9Y6A5 550-568, looked up)
# peptide: KESALRKQDLWLLFDPLFR
# modifications: also: 8-amino-3,6-dioxaoctanoic acid spacer to cellulose membrane, end not given here
# notes: human TACC3 aa 550-568 with S558D, Y560W, K562L, L567F; source: synthesised on cellulose membrane (MultiPep 2)
# B13: array peptide TACC3 550–568 S558D Y560W K562L (peptide, UniProt Q9Y6A5 550-568, looked up)
# peptide: KESALRKQDLWLLFDPLLR
# modifications: also: 8-amino-3,6-dioxaoctanoic acid spacer to cellulose membrane, end not given here
# notes: human TACC3 aa 550-568 with S558D, Y560W, K562L; source: synthesised on cellulose membrane (MultiPep 2)
# B14: array peptide TACC3 550–568 S558D Y560L K562L L567F (peptide, UniProt Q9Y6A5 550-568, looked up)
# peptide: KESALRKQDLLLLFDPLFR
# modifications: also: 8-amino-3,6-dioxaoctanoic acid spacer to cellulose membrane, end not given here
# notes: human TACC3 aa 550-568 with S558D, Y560L, K562L, L567F; source: synthesised on cellulose membrane (MultiPep 2)
# B15: array peptide TACC3 550–568 S558D Y560L K562E L567F (peptide, UniProt Q9Y6A5 550-568, looked up)
# peptide: KESALRKQDLLLEFDPLFR
# modifications: also: 8-amino-3,6-dioxaoctanoic acid spacer to cellulose membrane, end not given here
# notes: human TACC3 aa 550-568 with S558D, Y560L, K562E, L567F; source: synthesised on cellulose membrane (MultiPep 2)
# B16: array peptide TACC3 550–568 S558D Y560I K562L L567F (peptide, UniProt Q9Y6A5 550-568, looked up)
# peptide: KESALRKQDLILLFDPLFR
# modifications: also: 8-amino-3,6-dioxaoctanoic acid spacer to cellulose membrane, end not given here
# notes: human TACC3 aa 550-568 with S558D, Y560I, K562L, L567F; source: synthesised on cellulose membrane (MultiPep 2)
# B17: array peptide TACC3 550–568 S558D Y560L K562E (peptide, UniProt Q9Y6A5 550-568, looked up)
# peptide: KESALRKQDLLLEFDPLLR
# modifications: also: 8-amino-3,6-dioxaoctanoic acid spacer to cellulose membrane, end not given here
# notes: human TACC3 aa 550-568 with S558D, Y560L, K562E; source: synthesised on cellulose membrane (MultiPep 2)
# B18: array peptide TACC3 550–568 S558D Y560L K562L (peptide, UniProt Q9Y6A5 550-568, looked up)
# peptide: KESALRKQDLLLLFDPLLR
# modifications: also: 8-amino-3,6-dioxaoctanoic acid spacer to cellulose membrane, end not given here
# notes: human TACC3 aa 550-568 with S558D, Y560L, K562L; source: synthesised on cellulose membrane (MultiPep 2)
# Molecular target: T1, clathrin heavy chain minimal ankle …
# Assay: NMR titration; CHC titrated into ~140 μM 15N-labelled GB1-TACC3 or GB1-pTACC3 to a 1:5 CHC:TACC3 molar ratio; loss of 1H–15N HSQC peak intensity
# Details: both partners purified
row,Binder,binding result
1,B1,binds

# Molecular target: T1, clathrin heavy chain minimal ankle …
# Assay: fluorescence polarisation; direct binding, FAM-labelled TACC3 peptides and CHC protein; 20 mM HEPES pH 7.5, 150 mM NaCl, 5 mM DTT, 0.05% Tween-20; triplicate; one-site specific binding model
# Details: both partners purified
row,Binder,Kd
1,{FAM″}-KESALRK[S5]ELL[S5]EADPAFRDS-NH2 (staple 8-12) [negative control SP TACC3 (F563A & L566A)],~750 µM
2,B2,146 µM
3,B3,314 µM
4,B4,52 µM
5,B5,26 µM
6,B6,23 µM

# Molecular target: T2, biotinylated Avi-tagged ankle region of …
# Assay: peptide or protein array; peptides synthesised on cellulose membrane; 1 μM biotinylated clathrin 358–574 in 20 mM HEPES pH 7.5, 150 mM NaCl, 5 mM DTT, 0.05% Tween-20, 1 h room temperature; anti-biotin HRP
# Details: both partners purified
row,Binder,binding result
1,B7,binds
2,B8,binds
3,B9,binds
4,B10,binds
5,B11,binds
6,B12,binds
7,B13,binds
8,B14,binds
9,B15,binds
10,B16,binds
11,B17,binds
12,B18,binds

# — PMC12204359, “Mechanistic Design of Cell-Penetrating Disruptors for a Phospho-Dependent Interaction” (Research Square, 2025)
